Measurements as given in publication PMC3730723, “A Network of HMG-box Transcription Factors Regulates Sexual Cycle in the Fungus Podospora anserina”.

T1: PaHMG5 (HMG5His) (Podospora anserina, UniProt B2AM17 1-559)
T1 sequence: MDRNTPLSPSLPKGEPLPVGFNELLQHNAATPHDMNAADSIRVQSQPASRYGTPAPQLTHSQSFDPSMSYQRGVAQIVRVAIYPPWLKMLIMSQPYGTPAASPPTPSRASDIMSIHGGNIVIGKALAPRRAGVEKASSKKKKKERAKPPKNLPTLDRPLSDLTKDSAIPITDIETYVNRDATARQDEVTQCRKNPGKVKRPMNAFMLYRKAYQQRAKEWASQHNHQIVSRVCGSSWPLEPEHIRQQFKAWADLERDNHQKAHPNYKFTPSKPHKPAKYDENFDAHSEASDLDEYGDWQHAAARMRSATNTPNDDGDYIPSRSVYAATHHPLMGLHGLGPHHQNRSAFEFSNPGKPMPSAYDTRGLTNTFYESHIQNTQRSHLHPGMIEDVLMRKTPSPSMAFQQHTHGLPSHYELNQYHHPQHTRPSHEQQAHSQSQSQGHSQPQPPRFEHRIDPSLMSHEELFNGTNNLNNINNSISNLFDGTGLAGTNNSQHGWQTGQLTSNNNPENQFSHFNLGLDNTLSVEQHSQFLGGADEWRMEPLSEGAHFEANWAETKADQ

B1: KEF1 (PaHMG9) probe (dsDNA)
DNA 1: GATCGTAGCTATAGACAAAGAAAGCAACAGATAG
DNA 2: GCTATCTGTTGCTTTCTTTGTCTATAGCTACGAT
B2: PaHMG5 probe (dsDNA)
DNA 1: GTAGAGAAGCCGGAACAAAGAAAGGAACAAGCAG
DNA 2: GCTGCTTGTTCCTTTCTTTGTTCCGGCTTCTCTA
B3: FMR1 probe (dsDNA)
DNA 1: GTGCAGGATAGCCAACAAAGAAATGACTGCCACG
DNA 2: GCGTGGCAGTCATTTCTTTGTTGGCTATCCTGCA
B4: FPR1 probe (dsDNA)
DNA 1: GGTGAAGGTGAATAACAAAGAAATACACTGACGG
DNA 2: GCCGTCAGTGTATTTCTTTGTTATTCACCTTCAC
B5: mtHMG1 probe (dsDNA)
DNA 1: GGAGGGCATCTTCAACAAAGAATCTCGGCAAATA
DNA 2: GTATTTGCCGAGATTCTTTGTTGAAGATGCCCTC
B6: PaHMG8 probe (dsDNA)
DNA 1: GTGCAAACGCGGGGACAAAGAAAAAGTCTGGTGC
DNA 2: GGCACCAGACTTTTTCTTTGTCCCCGCGTTTGCA

Target: T1, PaHMG5 (HMG5His)
Assay: EMSA; 20 mM Tris pH 9.0, 500 mM NaCl, 5 mM beta-mercaptoethanol, 5 mM MgCl2, 5% glycerol, 1.25 ug poly(dI-dC), 11 ul, on ice; 6% gel in 0.25x TBE
Conditions: protein: recombinant; tags: C-terminal His6; label: 5'-32P; 33 bp duplex, 1 nt 5' G overhang on each strand

Binder | binding result
B1 | binds
B2 | binds
B3 | binds
B4 | binds
B5 | binds
B6 | binds
